Two molecules from paper PMC7948760, “Regulation of factor V and factor V-short by TFPIα: Relationship between B-domain proteolysis and binding” (The Journal of Biological Chemistry, 2021) can be followed below.

Ends that are not written are not given here.

Common to all, as to conditions: both partners purified
In assay [1] the target is T1, FV-short (factor V isoform with B-domain residues 756 to 1458 deleted) (human).
T1 construct: coagulation factor V, splicing isoform FV-short, single chain, lacks the BR and retains AR2; source: BHK cells, purified
Put plainly: fluorescence polarisation; steady-state anisotropy; FV species (0–100 nM) titrated into 20 nM OG488-TFPIα-BR and 50 μM PCPS, assay buffer (20 mM HEPES, 0.15 M NaCl, 5 mM CaCl2, 0.1% PEG 8000, pH 7.4), 25 °C; fit to independent, noninteracting sites. On the technique in general: Fluorescence polarisation rises when a labelled molecule tumbles more slowly, as on binding a larger partner.

For assay [2], the target named is T2, FV-short-RQ∗ (FV-short-RQ precleaved at Arg709 with thrombin) (human, UniProt P12259 29-737; P12259 738-2224, Δ756–1458 | Arg^1545 replaced with Gln).
T2 construct: coagulation factor V heavy chain (HC), released by cleavage at Arg709; coagulation factor V, rest of the shortened B-domain with AR2 joined to the light chain; also called FV-short cleaved at Arg709; source: FV-short-RQ (BHK cells, purified), 300 nM incubated with 2 nM thrombin 30 min at 37 °C, quenched with hirudin
T2 sequence (looked up) 1: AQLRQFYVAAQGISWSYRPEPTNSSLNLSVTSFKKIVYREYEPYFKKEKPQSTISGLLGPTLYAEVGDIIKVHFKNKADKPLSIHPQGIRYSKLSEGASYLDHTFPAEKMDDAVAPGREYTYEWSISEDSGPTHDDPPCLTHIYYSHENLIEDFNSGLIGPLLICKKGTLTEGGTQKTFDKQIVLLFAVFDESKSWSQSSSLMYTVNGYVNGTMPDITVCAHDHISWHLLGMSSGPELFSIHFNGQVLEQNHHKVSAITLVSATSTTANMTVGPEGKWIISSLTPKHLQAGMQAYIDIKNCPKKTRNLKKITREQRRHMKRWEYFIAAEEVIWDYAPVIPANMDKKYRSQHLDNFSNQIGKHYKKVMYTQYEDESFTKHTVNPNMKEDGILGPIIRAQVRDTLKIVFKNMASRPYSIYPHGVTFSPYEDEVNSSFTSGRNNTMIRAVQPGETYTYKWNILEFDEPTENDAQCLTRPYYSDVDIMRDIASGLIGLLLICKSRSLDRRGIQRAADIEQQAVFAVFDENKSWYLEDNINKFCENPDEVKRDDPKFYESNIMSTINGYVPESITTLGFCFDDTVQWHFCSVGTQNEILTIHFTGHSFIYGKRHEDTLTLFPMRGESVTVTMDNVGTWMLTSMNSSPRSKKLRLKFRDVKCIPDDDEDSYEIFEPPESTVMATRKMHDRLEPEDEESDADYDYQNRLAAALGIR
T2 sequence (looked up) 2: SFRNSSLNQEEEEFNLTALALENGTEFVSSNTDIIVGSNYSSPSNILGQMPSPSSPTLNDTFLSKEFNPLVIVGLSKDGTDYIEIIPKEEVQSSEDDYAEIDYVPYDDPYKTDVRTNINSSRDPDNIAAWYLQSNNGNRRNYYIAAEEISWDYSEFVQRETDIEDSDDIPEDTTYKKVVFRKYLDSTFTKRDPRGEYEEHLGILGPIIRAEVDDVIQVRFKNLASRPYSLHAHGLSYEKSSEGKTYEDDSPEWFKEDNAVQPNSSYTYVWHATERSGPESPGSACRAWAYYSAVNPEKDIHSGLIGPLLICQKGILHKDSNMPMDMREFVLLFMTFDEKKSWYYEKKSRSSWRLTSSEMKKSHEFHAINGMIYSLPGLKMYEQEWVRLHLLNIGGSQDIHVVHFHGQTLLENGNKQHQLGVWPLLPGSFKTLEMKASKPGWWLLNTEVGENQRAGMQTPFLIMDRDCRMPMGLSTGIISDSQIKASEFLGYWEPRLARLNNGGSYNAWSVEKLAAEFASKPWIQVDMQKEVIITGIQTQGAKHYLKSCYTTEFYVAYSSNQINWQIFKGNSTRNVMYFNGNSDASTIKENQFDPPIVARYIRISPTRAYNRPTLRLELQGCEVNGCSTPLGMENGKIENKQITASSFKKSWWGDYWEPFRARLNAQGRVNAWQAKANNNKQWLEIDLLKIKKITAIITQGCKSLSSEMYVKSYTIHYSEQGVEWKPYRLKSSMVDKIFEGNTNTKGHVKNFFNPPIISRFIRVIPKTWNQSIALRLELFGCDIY
The assay is described as above.

The target of assay [3] is T1, FV-short (factor V isoform with …). Kind of assay: inhibition of prothrombinase (prothrombin activation assay); 0.1 nM cofactor species, 50 μM PCPS, 1.4 μM prothrombin, 3 μM DAPA, TFPIα-BR 0–7 μM, started with 2 nM FXa, assay buffer, 25 °C; Ki from the equation for competitive inhibition.
Assay [4] concerns the target T3, FV-short-QQ (FV-short with Arg709 and Arg1545 replaced with Gln) (human).
T3 construct: coagulation factor V, FV-short with both thrombin cleavage sites changed to Gln, not cleaved by thrombin; source: BHK cells, purified
The assay is described as above.

Assay [5] has as its target T2, FV-short-RQ∗ (FV-short-RQ precleaved at …). The description is as above.
In assay [6] the target is T3, FV-short-QQ (FV-short with Arg709 and …). Put plainly: fluorescence polarisation; competition: unlabeled TFPIα-BR (0–2 μM) or TFPIα (0–1 μM) titrated into 25 nM OG488-TFPIα-BR, 20 nM FV-short-QQ and 50 μM PCPS, assay buffer, 25 °C; stoichiometry of 1 assumed.
For assay [7], the target named is T1, FV-short (factor V isoform with …). Kind of assay: inhibition of prothrombinase (prothrombin activation assay); 0.1 nM cofactor species, 50 μM PCPS, 1.4 μM prothrombin, 3 μM DAPA, TFPIα-BR 0–7 μM, started with 2 nM FXa, assay buffer, 25 °C; Ki from the equation for competitive inhibition. This is another data set of the same source.
The target of assay [8] is T4, FV-short-QR∗ (FV-short-QR precleaved at Arg1545 with RVV-V) (human, UniProt P12259 29-1573; P12259 1574-2224, Δ756–1458 | Arg^709 replaced with Gln).
T4 construct: coagulation factor V heavy chain joined to the shortened B-domain with AR2; coagulation factor V light chain (LC), released by cleavage at Arg1545; also called FV-short cleaved at Arg1545; source: FV-short-QR (BHK cells, purified), 300 nM incubated with 2 nM RVV-V 30 min at 37 °C
T4 sequence (looked up) 1: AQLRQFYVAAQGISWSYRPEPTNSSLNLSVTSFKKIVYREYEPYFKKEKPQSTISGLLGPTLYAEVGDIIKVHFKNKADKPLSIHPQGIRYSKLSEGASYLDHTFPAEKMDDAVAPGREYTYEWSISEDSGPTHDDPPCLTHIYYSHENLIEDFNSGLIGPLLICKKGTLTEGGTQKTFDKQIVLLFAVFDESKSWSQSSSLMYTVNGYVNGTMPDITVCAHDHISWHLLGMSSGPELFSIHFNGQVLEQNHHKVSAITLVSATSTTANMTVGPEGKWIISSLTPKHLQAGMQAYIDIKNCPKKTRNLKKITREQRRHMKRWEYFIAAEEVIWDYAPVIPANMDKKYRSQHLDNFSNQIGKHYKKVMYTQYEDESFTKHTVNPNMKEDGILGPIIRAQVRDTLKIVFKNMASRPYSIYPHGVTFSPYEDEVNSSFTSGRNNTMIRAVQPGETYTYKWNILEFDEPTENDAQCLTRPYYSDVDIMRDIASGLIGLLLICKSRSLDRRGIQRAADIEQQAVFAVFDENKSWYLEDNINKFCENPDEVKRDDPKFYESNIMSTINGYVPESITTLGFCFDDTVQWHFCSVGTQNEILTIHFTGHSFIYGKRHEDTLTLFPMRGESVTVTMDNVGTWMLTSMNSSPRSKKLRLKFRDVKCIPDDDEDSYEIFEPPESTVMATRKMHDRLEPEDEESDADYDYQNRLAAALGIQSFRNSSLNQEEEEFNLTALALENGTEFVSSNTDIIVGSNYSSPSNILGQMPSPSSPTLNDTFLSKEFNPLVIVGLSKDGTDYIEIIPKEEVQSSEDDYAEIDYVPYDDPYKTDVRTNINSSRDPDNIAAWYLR
T4 sequence (looked up) 2: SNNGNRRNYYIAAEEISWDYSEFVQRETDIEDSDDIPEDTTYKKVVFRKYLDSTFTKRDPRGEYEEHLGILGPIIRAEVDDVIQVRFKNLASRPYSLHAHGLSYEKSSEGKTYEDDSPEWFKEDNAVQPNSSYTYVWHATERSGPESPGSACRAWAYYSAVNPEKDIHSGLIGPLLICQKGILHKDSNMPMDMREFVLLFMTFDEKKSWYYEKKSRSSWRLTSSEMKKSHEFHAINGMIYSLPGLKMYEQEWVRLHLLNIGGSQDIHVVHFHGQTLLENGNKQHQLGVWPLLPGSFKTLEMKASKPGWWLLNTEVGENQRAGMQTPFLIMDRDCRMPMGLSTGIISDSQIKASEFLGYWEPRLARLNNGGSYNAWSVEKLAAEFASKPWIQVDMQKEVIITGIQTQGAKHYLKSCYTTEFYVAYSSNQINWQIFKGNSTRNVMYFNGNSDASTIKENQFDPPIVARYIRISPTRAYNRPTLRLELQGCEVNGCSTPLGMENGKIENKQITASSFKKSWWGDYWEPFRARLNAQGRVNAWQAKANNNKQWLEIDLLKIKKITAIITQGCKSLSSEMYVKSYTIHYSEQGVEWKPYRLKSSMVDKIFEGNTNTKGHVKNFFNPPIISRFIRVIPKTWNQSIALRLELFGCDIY
Described as above.

Assay [9] deals with T3, FV-short-QQ (FV-short with Arg709 and …). The description is as above. This is another data set of the same source.
Assay [10] deals with T2, FV-short-RQ∗ (FV-short-RQ precleaved at …). Described as above. The source holds these as a separate data set.
The target in a further assay is T5, activated factor V (FVa) (human, UniProt P12259 29-737; P12259 1574-2224).
T5 construct: coagulation factor V heavy chain (HC; domains A1-A2); coagulation factor V light chain (LC; domains A3-C1-C2); source: prepared by treatment of FV-short (BHK cells) with thrombin, purified
T5 sequence (looked up) 1: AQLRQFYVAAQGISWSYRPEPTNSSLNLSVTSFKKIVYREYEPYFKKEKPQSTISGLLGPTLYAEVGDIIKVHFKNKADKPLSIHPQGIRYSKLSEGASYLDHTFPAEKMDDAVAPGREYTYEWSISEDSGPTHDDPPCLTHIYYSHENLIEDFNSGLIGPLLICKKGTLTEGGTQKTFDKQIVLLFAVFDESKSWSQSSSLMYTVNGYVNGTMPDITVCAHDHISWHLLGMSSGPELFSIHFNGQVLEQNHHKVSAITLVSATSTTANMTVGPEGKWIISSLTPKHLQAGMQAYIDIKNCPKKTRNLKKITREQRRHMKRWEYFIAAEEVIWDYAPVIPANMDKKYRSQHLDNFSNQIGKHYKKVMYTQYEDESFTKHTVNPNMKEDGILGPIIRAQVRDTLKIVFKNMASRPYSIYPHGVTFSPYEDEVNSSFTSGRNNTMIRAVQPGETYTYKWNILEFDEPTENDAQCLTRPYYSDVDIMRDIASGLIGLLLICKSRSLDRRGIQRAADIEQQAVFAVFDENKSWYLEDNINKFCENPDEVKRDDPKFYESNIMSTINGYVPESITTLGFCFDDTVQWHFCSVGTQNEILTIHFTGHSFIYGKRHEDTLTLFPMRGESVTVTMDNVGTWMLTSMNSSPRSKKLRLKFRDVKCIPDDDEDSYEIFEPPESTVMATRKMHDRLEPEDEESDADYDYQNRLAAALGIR
T5 sequence (looked up) 2: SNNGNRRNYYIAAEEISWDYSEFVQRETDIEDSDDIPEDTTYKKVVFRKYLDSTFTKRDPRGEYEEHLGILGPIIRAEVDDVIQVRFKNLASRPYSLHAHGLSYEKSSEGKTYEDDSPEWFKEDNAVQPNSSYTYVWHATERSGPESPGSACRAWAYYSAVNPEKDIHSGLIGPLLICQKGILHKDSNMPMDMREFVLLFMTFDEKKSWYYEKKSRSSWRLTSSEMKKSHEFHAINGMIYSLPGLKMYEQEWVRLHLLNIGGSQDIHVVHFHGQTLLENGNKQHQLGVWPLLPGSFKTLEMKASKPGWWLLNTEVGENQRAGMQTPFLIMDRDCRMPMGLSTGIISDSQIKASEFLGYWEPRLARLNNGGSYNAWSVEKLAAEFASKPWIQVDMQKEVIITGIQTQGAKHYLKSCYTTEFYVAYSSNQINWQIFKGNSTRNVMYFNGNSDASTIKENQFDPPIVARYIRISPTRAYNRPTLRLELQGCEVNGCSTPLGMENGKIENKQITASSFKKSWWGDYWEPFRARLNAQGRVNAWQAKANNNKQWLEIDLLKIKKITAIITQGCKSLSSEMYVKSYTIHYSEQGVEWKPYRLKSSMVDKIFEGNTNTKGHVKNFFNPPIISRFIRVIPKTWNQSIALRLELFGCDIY
Described as above.

As to {C(Oregon Green488 maleimide)}-KKGFIQRISKGGLIKTKRKRKKQRVKIAYEEIFVKNM (domain or fragment) [OG488-TFPIα-BR, TFPIα-BR modified with Oregon Green488 maleimide], the results for the Kd in [1] and in [2] were 0.71 ± 0.11 nM and 2.16 ± 0.25 nM, respectively.

B1: TFPIα-BR, fragment containing the BR sequence of TFPIα (domain or fragment)
chain: KKGFIQRISKGGLIKTKRKRKKQRVKIAYEEIFVKNM
modifications: limits not printed (refs 17, 18); taken as the whole C-terminal tail after Kunitz 3 (mature 240-276); expressed in E. coli, unglycosylated
Turning to B1, the Ki – broadly, the dissociation constant of the complex between target and ligand, obtained from inhibition or displacement – in assay [3] is 19.8 nM; in assay [4], 21.5 nM; in [5], 86.1 nM; in assay [7] it was 23.6 nM; in [8] it was over 7000 nM; in [9], 23.4 nM. The Ki in [10] was 83.9 nM; with activated factor V (FVa), over 7000 nM. Also, in assay [6], the Kd (as a rule, a measure of binding affinity in units of concentration) was 2.25 ± 0.2 nM.
